# Values quoted from earlier work, collected in patent US10603364B2, “Lysosomal targeting and uses thereof” (Shire Human Genetic Therapies, Inc., priority 2014, dated 2020).
# What was measured:
# [1] = target: M6P/IGF II receptor (cation-independent mannose-6-phosphate receptor) (Homo sapiens, UniProt P11717)
# IGF-I receptor = IGF-I receptor (Homo sapiens, UniProt P08069)
# Chain of IGF-I receptor (P08069 31-736 limits assumed, species assumed): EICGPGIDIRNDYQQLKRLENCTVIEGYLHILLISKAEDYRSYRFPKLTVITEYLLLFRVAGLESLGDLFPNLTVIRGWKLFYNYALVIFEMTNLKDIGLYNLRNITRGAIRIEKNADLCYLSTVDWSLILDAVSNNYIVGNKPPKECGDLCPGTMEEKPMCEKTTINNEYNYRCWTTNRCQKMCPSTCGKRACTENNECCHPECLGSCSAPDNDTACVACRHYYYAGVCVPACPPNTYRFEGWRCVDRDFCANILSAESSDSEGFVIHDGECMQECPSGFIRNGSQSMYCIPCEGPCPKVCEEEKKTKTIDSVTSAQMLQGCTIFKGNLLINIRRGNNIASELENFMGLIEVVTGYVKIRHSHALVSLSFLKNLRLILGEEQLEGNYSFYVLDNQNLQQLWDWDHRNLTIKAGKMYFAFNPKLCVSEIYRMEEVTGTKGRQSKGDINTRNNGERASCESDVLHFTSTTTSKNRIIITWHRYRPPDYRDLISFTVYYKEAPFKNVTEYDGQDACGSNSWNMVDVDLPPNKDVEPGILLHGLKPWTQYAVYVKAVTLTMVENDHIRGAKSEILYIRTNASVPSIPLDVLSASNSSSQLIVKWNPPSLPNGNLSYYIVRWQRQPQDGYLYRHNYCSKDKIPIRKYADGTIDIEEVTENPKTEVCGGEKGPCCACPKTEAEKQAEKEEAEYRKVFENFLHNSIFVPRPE
# Chain of IGF-I receptor (P08069 741-1367 partner limits assumed, species assumed): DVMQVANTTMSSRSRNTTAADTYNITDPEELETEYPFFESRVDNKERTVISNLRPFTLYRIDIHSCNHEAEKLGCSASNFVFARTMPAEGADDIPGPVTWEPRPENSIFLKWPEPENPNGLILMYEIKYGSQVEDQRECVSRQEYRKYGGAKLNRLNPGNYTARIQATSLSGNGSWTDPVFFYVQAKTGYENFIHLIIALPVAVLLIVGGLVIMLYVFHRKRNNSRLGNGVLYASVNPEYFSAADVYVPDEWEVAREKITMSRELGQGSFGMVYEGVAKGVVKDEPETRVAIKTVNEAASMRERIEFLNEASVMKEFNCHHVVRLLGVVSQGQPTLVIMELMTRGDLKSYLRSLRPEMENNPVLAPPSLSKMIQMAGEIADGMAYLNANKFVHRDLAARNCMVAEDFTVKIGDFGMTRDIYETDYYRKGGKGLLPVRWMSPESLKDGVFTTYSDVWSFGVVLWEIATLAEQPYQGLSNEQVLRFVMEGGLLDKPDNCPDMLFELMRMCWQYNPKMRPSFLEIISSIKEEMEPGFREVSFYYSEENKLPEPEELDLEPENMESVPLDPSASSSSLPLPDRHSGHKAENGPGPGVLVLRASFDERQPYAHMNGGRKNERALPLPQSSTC
# Chain of M6P/IGF II receptor (cation-independent mannose-6-phosphate receptor) (P11717 41-2491): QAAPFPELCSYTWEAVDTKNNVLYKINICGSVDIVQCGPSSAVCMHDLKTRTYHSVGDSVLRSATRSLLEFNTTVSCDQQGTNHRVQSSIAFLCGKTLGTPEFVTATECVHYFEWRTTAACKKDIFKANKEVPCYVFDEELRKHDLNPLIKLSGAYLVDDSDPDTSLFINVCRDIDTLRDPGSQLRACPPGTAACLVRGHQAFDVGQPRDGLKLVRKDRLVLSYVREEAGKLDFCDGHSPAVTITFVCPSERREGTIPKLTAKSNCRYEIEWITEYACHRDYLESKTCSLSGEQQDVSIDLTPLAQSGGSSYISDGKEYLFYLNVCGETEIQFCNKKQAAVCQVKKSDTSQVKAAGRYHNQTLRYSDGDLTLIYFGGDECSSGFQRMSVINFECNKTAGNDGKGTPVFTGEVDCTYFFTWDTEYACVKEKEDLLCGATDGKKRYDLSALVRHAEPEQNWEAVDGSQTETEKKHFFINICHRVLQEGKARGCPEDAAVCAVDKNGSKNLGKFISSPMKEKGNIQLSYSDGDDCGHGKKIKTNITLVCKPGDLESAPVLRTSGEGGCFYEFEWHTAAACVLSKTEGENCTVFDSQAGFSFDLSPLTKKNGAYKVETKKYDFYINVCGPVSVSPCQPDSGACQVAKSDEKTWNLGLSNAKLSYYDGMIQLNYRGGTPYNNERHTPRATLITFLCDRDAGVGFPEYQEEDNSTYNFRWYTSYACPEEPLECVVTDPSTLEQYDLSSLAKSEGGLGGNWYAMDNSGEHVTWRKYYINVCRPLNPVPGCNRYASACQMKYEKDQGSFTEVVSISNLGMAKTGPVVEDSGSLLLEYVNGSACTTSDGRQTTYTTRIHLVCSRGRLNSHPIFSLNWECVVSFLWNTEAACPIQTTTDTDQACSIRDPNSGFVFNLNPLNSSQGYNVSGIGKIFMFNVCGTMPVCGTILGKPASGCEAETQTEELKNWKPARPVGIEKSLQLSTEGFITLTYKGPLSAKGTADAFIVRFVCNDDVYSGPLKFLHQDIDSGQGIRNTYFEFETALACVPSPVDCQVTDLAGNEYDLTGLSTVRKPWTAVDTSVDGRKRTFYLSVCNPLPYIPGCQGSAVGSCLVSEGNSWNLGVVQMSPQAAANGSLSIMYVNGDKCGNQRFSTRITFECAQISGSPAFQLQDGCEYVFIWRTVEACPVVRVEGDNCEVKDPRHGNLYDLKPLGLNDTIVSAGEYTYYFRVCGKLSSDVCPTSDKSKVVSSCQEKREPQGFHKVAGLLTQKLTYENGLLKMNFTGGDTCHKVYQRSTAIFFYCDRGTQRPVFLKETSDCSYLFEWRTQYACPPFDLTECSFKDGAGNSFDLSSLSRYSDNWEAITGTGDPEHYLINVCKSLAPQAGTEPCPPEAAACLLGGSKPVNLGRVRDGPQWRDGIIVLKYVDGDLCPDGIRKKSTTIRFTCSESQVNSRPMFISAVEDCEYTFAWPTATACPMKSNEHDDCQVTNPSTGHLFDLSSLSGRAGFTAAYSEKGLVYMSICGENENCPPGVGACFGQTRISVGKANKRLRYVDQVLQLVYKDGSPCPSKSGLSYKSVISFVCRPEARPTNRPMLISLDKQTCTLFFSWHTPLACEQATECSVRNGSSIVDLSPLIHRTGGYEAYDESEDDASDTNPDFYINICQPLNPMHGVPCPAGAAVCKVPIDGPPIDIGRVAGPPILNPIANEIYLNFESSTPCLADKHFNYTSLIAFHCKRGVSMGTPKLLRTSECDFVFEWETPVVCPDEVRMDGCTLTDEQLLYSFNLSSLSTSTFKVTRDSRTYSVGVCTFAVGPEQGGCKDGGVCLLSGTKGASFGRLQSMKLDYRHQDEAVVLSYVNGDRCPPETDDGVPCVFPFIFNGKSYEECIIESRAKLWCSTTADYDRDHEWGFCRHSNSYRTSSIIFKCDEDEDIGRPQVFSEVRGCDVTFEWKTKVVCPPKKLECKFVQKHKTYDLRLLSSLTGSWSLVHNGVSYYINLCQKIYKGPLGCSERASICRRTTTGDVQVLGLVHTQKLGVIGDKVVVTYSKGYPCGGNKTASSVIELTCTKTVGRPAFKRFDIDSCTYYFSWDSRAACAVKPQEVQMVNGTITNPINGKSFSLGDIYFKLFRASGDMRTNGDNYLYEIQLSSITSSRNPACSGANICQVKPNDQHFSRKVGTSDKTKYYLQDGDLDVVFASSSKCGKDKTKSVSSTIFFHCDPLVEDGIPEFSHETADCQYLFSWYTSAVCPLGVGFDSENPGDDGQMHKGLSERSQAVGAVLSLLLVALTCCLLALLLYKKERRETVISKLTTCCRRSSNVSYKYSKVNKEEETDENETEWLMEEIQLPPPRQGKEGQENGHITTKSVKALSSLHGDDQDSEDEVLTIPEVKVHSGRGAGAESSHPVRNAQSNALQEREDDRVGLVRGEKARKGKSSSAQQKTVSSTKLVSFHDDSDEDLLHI
substance,measurement,setting,value
"IGF-II sequence containing amino acid 8-67: amino acid residues 8-67 of the Insulin-like Growth Factor II peptide sequence, SEQ ID NO:21",higher affinity for M6P/IGF II receptor compared to full-length IGF-II,[1],2-10 fold
same,decrease in ability to bind IGF-I receptor compared to full-length IGF-II,IGF-I receptor,30 fold
